assay: soluble on expression in E. coli; label from the status in PepcDB or PDB records

Row | Sequence | soluble on expression in E. coli
1 | MGSDKIHHHHHHMDSNIFISTYHIRYGQEDSSMNKLKILFVLFTNIKTGAGTEKSLYYYLKYADISKFDITVLQTNLMPGGQRLSDSDLETIKNKAKFIEIKDYRGLLGFIRNKYLSYLLNLFILPMLLKICKYTVYHKKLKQLKDSNVIYLFNNDYSNLFSHKSVVIGSNHCAFDNLDSFSQKLIARLLSLRIILPSITAFHLFPHNVSFKEYFGNKPLILLSNGVDTDLYYPSHSQNLKTKILFVGRLEEVKGILMAIKVYNNIKKMFPVEFVIVGSGSLESEVDKLCASDTNVKHFKHVAENDLANIYRSCDIFLYPTQGDSYALVVLEALSSGLKVVTTVNIYRVYNDFIRFNVIKFADFDEKSLTQALLDIKNTVINKNEIHNYIEKNYSWKKVSENLFNLMYNLAVKN | not soluble
2 | MAYFMTDVTKENRQDECRFSPNKEATEEDLLRIGVECTKVNFDDEHVQEDLDRLIKKYDMNFHDEVHICRATMPNFDEKLDIFFEEHLHDDAELRVIKHGVGFFDVRTKDEAWIRIPVRRGDFVFLPAGIYHRFTTDPSEDVVALRLFRNNPKWTAFNRKADGDEQRVRQQYLNDISA | soluble
3 | MSLVGDVYLGVGSASSEYWAAYIEGAKAVASSLGKDVNVIPSEFDGQKLLEQFGAVFAAGCEDCVVTVDPASNAFTKAMIERADTAGAKYVNLWNRPDEIHPWDTVPNTWIANISFDGVDSGYQNGMALCNALGGKGNIVALNGIPDNPPAKQRIAGLHKALQECPGLKLLDTQVGNWDQTQGQSITRAWLAKYGDELNGIFSANDGMALGAVAALREKGLVGKILVTGSDGSSDVIKLIEKGEMLSTMHIDGYVQGAYAVALAAAAVKGDIKMDELKQDQRDFFLSQTLVTKDNAASVLNSKEGHHHHHH | not soluble
4 | GDKVIVMGHKRPDLDAIGAAIGVSRFASMNNLEAFIVLNDSDIDPTLRRVMDEIDKKPELKERFVTSDEAWDMMTSKTTVVVVDTHKPEMVLDENVLNKANRKVVIDHHRRGESFISNPLLVYMEPYASSTAELVTELLEYQPTEQRLTRLESTVMYAGIIVDTRNFTLRTGSRTFDAASYLRAHGADTILTQHFLKDDV | not soluble
5 | MLSSKFPLLVATDLSPTGKVVLEKAFKLAKRYHKPLFILHVSETTLFAPKIIELTQIEANLCKLLEPFYARYPEVKATLLCRQGGIEESIISAIKETQASLLLIGTSGEDNLLREFFLGSHCRKIIRSSTIPVLVVKNEEESDYSKIFIPTDFSPSSQKMANLTLHLFPHAYISLFHVILKPFEQRLGMYGLDKDEILRYHKDIDNQSASEADHFIEKLKLPSGKHRIKLLMETGVFSAKLCLQKVKEAQSDLIALNTTGNISFFSMDILNQSPKDVLIFKTDSE | not soluble
6 | MSDLYRNKKILAPMVRAGRTPLRLLCLKYGADLCYTEEIVDKKLIEATRVVNEALGTIDYRNGDDIILRLAPEEKGRCILQIGTNSGEKAAKIAQIVGDDVAGIDVNMGCPKPFSIHCGMGAALLTQTEKIVDILTSLKSAAKVPVTCKIRVLDDPEDTLKLVQEIEKCRVSALGVHGRRRDERQPDKCRIDEIRDVAQAVQSIPVISNGLSDEIEQYSDFEKYQLLTETSSTMIARKALSTPSIFRREGCLDKYEDIRNFLELACQYDESYTMTKYVVQRILGADQEYDPRGKATVAAGSVLQICKAFGMEDVYDKWRDERKKKQSKKRARVDDDGVYNIEVSFPLKRLKNSVGFSPTPKMVLHDYCVETKIPKATYEVVKRDDKRFVATACIGDKKYRSGIGQPNLRMAEQVAALAALHGMNIRNLLVGNWEEE | not soluble
7 | MADYADAVVTQESALTTSPGETVTLTCRSSTGAVTTSNYASWVQEKPDHLFTGLIGGTNNRAPGVPARFSGSLIGDKAALTITGAQTEDEAIYFCALWYSNHWVFGGGTKLTVLGGGGGSGGGGSGGGGSGGGGS | soluble
8 | MSLKIDAVDLFYLSMPEVTDAADGSQDALLVRVAAGGHIGWGECEAAPLPSIAAFVCPKSHGVCRPVSDSVLGQRLDGPDDIARIAALVGYNSMDLLQAPHMLSGIEMALWDLLGRRLSAPAWALLGYSASHGKRPYASLLFGDTPQETLERARAARRDGFAAVKFGWGPIGRGTVAADADQIMAAREGLGPDGDLMVDVGQIFGEDVEAAAARLPTLDAAGVLWLEEPFDAGALAAHAALAGRGARVRIAGGEAAHNFHMAQHLMDYGRIGFIQIDCGRIGGLGPAKRVADAAQARGITYVNHTFTSHLALSASLQPFAGLEADRICEYPAAPQQLALDITGDHIRPDAEGLIRAPEAPGLGLQVAASALRRYLVETEIRIGGQLIYRTPQLEGHHHHHH | soluble
9 | MSSKPLLTLQELAAQNILRNEALAISALQYLPELFLPQLLKQAYDGNHLKVLRAIVSSWPFPRLPLGALKKRTPYLETQLQVVLEEVDKLLIQEVHPREYKLEVLDLRSVGQNYLNVWPGAMDDWLPKTTQTDPCCSKTVMTQPLKVLVDLQLNNRGQSRLFSYLVQWSDRRKGLLQLYCNKLQIWSPSQQNYRKLSQKVNLDYVETLGLHSSCSPSFLLNFAPYLRQMRNLRKLALSNIREEHIISPEKRRCIITRFTLQILKLESLQKLHLDAVCFLEGHLDQLLGSVKTSLDELAVTHCNLSVSEWSHFSEFPCVSQLQQLNLENVRLTGLSPEPLQVLLVKAGPTLVALDLEDCHLEDGQLYAILPALSKCFKLTKFSFYGNQISMLAMKDLLHHTASLIHLRLELYPVPQDSYDYHGTPLMQRMQQHCDELMNLLKTFRNPGRVFFGTDRCDQCCNRYIYNKTIMCNCRRSY | not soluble
10 | LSKVVIRRLPPTLTKEQLQEHLQPMPEHDYFEFFSNDTSLYPHMYARAYINFKNQEDIILFRDRFDGYVFLDNKGQEYPAIVEFAPFQKAA | soluble
11 | MSLKGTPGNVPAARTGIEITPAHRAFFHALPKIELHCHLLGAVRHDTFVALAERSGAPIERAEIDAFYARGEKPVGVLHVLRALDRYLLTQPDDLRRIAYEYLEDAAAYNVRHAEFFWNPTGTVHVSGIAYADAQAAIVTGIRDAARDFGIGARLIPSIDREQDPDEAVAIVEWMKANRADEVAGLGIDYRENDRPPELFWKAYRNARAAGFRTTAHAGEFGMPWRNVETAVDLLQVDRVDHGYTIVDNPELCARYAERGIVFTVVPTNSYYLRTLPPEQWAERHPMRKMPGLGLKIHPNTDDPTLHKVNPSEAWELMFSHFGFTVAELKQFMLNGIDGAWVDDTTKAAWRAAWAPEFDVLAATLAAGEGHHHHHH | soluble
12 | SLRKLRFTRSPYTSARLGQPVDASLLLCNGGRRRFRGQVRDAWPPSARAQPHTHDVDVAAGQRQQVHTALRPVRRGDQRAAMVTARSIGPLGLAGRQSSQSVPGLVRVLPPFLSRKHLPSRLAKLREIDGLLPTLIRGQGTEFDSLREYVVGDDVRSIDWRASARRADVMVRTWRPERDRRVVIVLDTGRMAAGRVGVDPTAADPAGWPRLDWSMDAALLLAALASRAGDHVDFLAHDRISRAGVFGASRSELLAQLVDAMAPLRPALIESDWHAMIATILRRTRRRSLVVLLTDLNATALDEGLLPVLPQLSARHHVLVAAVADPRVDQLAAGRSDAAAVYDAAAAERARNDRRAIASQLRRGGVDVIDAPPAEIAPGLADRYLAMKATGRL | not soluble
13 | MSLENAGSRPFLADFNGFSYLELKGLHTFERDLGEKMALEMVFLARGPSGLLLYNGQKTDGKGDFVSLALHNRHLEFRYDLGKGAAIIRSKEPIALGTWVRVFLERNGRKGALQVGDGPRVLGESPVPHTMLNLKEPLYVGGAPDFSKLARGAAVASGFDGAIQLVSLRGHQLLTQEHVLRAVDVAPFAGEGHHHHHH | soluble
14 | MSKVPSDIEIAQAAKMKPVMELARGLGIQEDEVELYGKYKAKISLDVYRRLKDKPDGKLILVTAITPTPAGEGKTTTSVGLTDALARLGKRVMVCLREPSLGPSFGIKGGAAGGGYAQVVPMEDINLHFTGDIHAVTYAHNLLAAMVDNHLQQGNVLNIDPRTITWRRVIDLNDRALRNIVIGLGGKANGVPRETGFDISVASEVMACLCLASDLMDLKERFSRIVVGYTYDGKPVTAGDLEAQGSMALLMKDAIKPNLVQTLENTPAFIHGGPFANIAHGCNSIIATKTALKLADYVVTEAGFGADLGAEKFYDVKCRYAGFKPDATVIVATVRALKMHGGVPKSDLATENLEALREGFANLEKHIENIGKFGVPAVVAINAFPTDTEAELNLLYELCAKAGAEVALSWAKGGEGGLELARKVLQTLESRPSNFHVLYNLDLSIKDKIAKIATEIYGADGVNYTAEADKAIQRYESLGYGNLPVVMAKTQYSFSDDMTKLGRPRNFTITVREVRLSAGGRLIVPITGAIMTMPGLPKRPAACNIDIDADGVITGLF | soluble
15 | MRLDLENLVETPSNEIAGFYEGLVEALPSLEGHYCSPGCRGGFLMRVREGTMMGHIVEHVALELQELAGMHVGFGRTRETATPGVYQVVIEYINEEAGRYAGRAAVRLCQSIVDRGRYPKAELEQDIQDLKDFSREASLGPSTEAIIKEAEKRGIPWMPLAARFLIQLGYGVNQKRMQATMTDNTGILGVELACDKEATKRILAANGVPVPRGTVINFLDDLEESIEYVGGYPIVIKPLDGNHGRGITIDIRSWDEAEAAYEAARQVSRSIIVERYYVGRDHRVLVVDGKVVAVAERVPAHVIGNGRSSIAELITETNQDPNRGEGHDNVLTKIELDRTSYQLLERQGYTLNSVPPKGTICYLRATANLSTGGSAVDRTDEIHPENVWLAQRVVRIIGLDIAGLDIVTTDISRPLRDVDGVIVEVNAAPGFRMHVAPSQGIPRNVAGAVMDMLFPNEKPSRIPILTVTGTNGKTTTTRLLAHIYRQTKKVVGYTTTDGTYIGDYLVEAGDNTGPQSAHVILQDPTVEVAVLESARGGILRSGLGFESANVGVVLNVAADHLGIGDIDTIEQLANLKSVVAEAVFPDGYAVLNADDHRVAAMSEKTKANIAYFTMNPDSDLVRKHIQKGGVAAVYENGYLSIVKGDWTHRIERAENIPLTMGGKAPFMIANALAASLAAFVQNVTIEQIRPGLRTFRASVSQTPGRMNLFNLGKYHALVDYAHNPASYEALGSFVRNWTTGQRIGVIGGPGDRRDEDFVTLGKLSADIFDYILVKEDDDTRGRLRGSASDLIIQGITQVKPNSRFESILDETQAINKALDMAPDGSLVVILPESVNRAIKLIKVRGVQEEIQPQNSTTTINDSQNGVAPSSVVNTLL | not soluble
16 | MRQIVPKVVVVGAGMGGLASAIRLARAGCEVTLLEAREAPGGRMRTLPSVAGPVDAGPTVLTLREVFDDIFEVCGQKLDHHLTLLPQPLLARHWWLDGSTLDLTTDLEANVEAVAAFAGAREARAFRRFHDLSARLYDAFDRPMMRAARPDLRAIATGALKAPRTWPALLPGMTLDRLLRLFFRDRRLRQLFGRYATYVGGTPYGAPGVLALIWAAEARGVWAIEGGMHRLALALARLADDQGVRLRYGAPVARILRQGGRATGVQLADGRTLPADHIVFNGDPAALLAGCLGDGPQDAVPEDRIHPRSLSAWVWSYAARASGPPLVHHNVFFADDPRREFGPIAAGQMPEDATLYICAEDRSGGQLPDGPERFEIIMNGPPGRPAKPEDFAQCRSRTFDRLRQFGLTFDPVPGETSLTAPSGFASLFPASQGSIYGLSPHGALASLKRPLARTALPGLWLAGGGAHPGAGVPMAALSGRHAAEAILADLASRSRLEHHHHHH | not soluble
17 | MAHHHHHHMKRGGRKKKGTLSNKLGKGKNDPSEDEEVIESETSSDEMGESNSASEESIDSDADNLSDKEQESQAEKQIQIYFTSNVANEKYQMEDTIYTIPATFKRIDLSRMVKKLLDIKENVSFEFLINDQILRSSIEEFLQLNNILSENVIEIKYILSITKKESTPIDKISEWISKLIIIENRLYCSTFGGSALCYDMSNFAKIDARKVADMSIFAFNVCKNDKLIDGEVKYSESVVGLSNGTIRAFLNEEMDQKIVTRSDLYLGNHDDMVKSIAFNKSGSLLITGGADNKINLYDNKEIVQKLKEYKSENDTNKRKMKHVLTPKKCIHKDVGIITTLTFFNSNNHFLCTGLEKNIKIYDADTADLFATLPYGKAIMCSDILNDNLFVTADEQSVIKLFDVRCLEEKAVISMNENKYFFHDKVITSLWGNKNGIHFLSSSHDGFTNIYDVRLNKFPVYTIQTEDKSKVLSSTWFYRESNNYVINADENNLTLHSF | not soluble
